The substances below were run against L7Ae (50S ribosomal protein L7Ae, L30 family, RBP11) (Archaeoglobus fulgidus) (UniProt O29494) (assay: pulldown). Details: RIP-Seq enrichment, may be indirect.
Chain of L7Ae (50S ribosomal protein L7Ae, L30 family, RBP11) (Archaeoglobus fulgidus) (O29494 whole entry): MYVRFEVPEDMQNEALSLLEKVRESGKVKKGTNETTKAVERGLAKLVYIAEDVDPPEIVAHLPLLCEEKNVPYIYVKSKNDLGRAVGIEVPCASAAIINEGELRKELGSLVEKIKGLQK
With FAM69A RNA the binding signal (log2 fold change) was 4.98.
Substance NPM1 RNA has a binding signal (log2 fold change) of 3.22.
SNORA62 RNA showed a binding signal (log2 fold change) of 3.32.
Substance SNORA73B RNA has a binding signal (log2 fold change) of 4.08.
SNORA79B RNA gave a binding signal (log2 fold change) of 3.28.

— patent US20240024414
